In IntAct's records for PubMed 12642614:

B1: vacuole-related protein 17 (Saccharomyces cerevisiae), P25591 (parent)
chain: MATQALEDITERLLIRSQEAILQLDLWIQRQQRSSICQTTDQESLDKLSQQYNQYMSQLNSLYVRSESVRDKLSKEQQRRLITEDNEHQRIEDLVREFQDITLRLNELATVPNEAPNDSPQSQSTRSSLGSFQPRPLKIIERQRLCMVTPSKPPKKSVGFNPINEVDCPSKTNSLPCSPKKQPARNRTLRAAKSHDTGLNKSKKPSSSDTYESFFKNRQRLSLTFFDEMDDEDFDSDQDTIILPNISTPPHVGVTAKGAEFEPLRRYNSHESILSNKPAPSKSLNLGSFSASFFRPSNPTFGTSISNVQVNCHPTVAATMAPSRNGPRISSSKALLSSFIARSDTHTVKENNTNLKHASFMDKFNSSLSTISESFQSKRGRKNKGMNEERISNHNVAQEQKNNMDISVSIEELQDALNTELLF
B2: Myosin-2 (Saccharomyces cerevisiae), P19524 (parent)
chain: MSFEVGTRCWYPHKELGWIGAEVIKNEFNDGKYHLELQLEDDEIVSVDTKDLNNDKDQSLPLLRNPPILEATEDLTSLSYLNEPAVLHAIKQRYSQLNIYTYSGIVLIATNPFDRVDQLYTQDMIQAYAGKRRGELEPHLFAIAEEAYRLMKNDKQNQTIVVSGESGAGKTVSAKYIMRYFASVEEENSATVQHQVEMSETEQKILATNPIMEAFGNAKTTRNDNSSRFGKYLEILFDKDTSIIGARIRTYLLERSRLVYQPPIERNYHIFYQLMAGLPAQTKEELHLTDASDYFYMNQGGDTKINGIDDAKEYKITVDALTLVGITKETQHQIFKILAALLHIGNIEIKKTRNDASLSADEPNLKLACELLGIDAYNFAKWVTKKQIITRSEKIVSNLNYSQALVAKDSVAKFIYSALFDWLVENINTVLCNPAVNDQISSFIGVLDIYGFEHFEKNSFEQFCINYANEKLQQEFNQHVFKLEQEEYVKEEIEWSFIEFNDNQPCIDLIENKLGILSLLDEESRLPAGSDESWTQKLYQTLDKSPTNKVFSKPRFGQTKFIVSHYALDVAYDVEGFIEKNRDTVSDGHLEVLKASTNETLINILEGLEKAAKKLEEAKKLELEQAGSKKPGPIRTVNRKPTLGSMFKQSLIELMNTINSTNVHYIRCIKPNADKEAWQFDNLMVLSQLRACGVLETIRISCAGFPSRWTFEEFVLRYYILIPHEQWDLIFKKKETTEEDIISVVKMILDATVKDKSKYQIGNTKIFFKAGMLAYLEKLRSNKMHNSIVMIQKKIRAKYYRKQYLQISQAIKYLQNNIKGFIIRQRVNDEMKVNCATLLQAAYRGHSIRANVFSVLRTITNLQKKIRKELKQRQLKQEHEYNAAVTIQSKVRTFEPRSRFLRTKKDTVVVQSLIRRRAAQRKLKQLKADAKSVNHLKEVSYKLENKVIELTQNLASKVKENKEMTERIKELQVQVEESAKLQETLENMKKEHLIDIDNQKSKDMELQKTIENNLQSTEQTLKDAQLELEDMVKQHDELKEESKKQLEELEQTKKTLVEYQTLNGDLQNEVKSLKEEIARLQTAMSLGTVTTSVLPQTPLKDVMGGGASNFNNMMLENSDLSPNDLNLKSRSTPSSGNNHIDSLSVDRENGVNATQINEELYRLLEDTEILNQEITEGLLKGFEVPDAGVAIQLSKRDVVYPARILIIVLSEMWRFGLTKQSESFLAQVLTTIQKVVTQLKGNDLIPSGVFWLANVRELYSFVVFALNSILTEETFKNGMTDEEYKEYVSLVTELKDDFEALSYNIYNIWLKKLQKQLQKKAINAVVISESLPGFSAGETSGFLNKIFANTEEYTMDDILTFFNSIYWCMKSFHIENEVFHAVVTTLLNYVDAICFNELIMKRNFLSWKRGLQLNYNVTRLEEWCKTHGLTDGTECLQHLIQTAKLLQVRKYTIEDIDILRGICYSLTPAQLQKLISQYQVADYESPIPQEILRYVADIVKKEAALSSSGNDSKGHEHSSSIFITPETGPFTDPFSLIKTRKFDQVEAYIPAWLSLPSTKRIVDLVAQQVVQDGH
partner: B1 chain

Variants of: B1
Conditions: with myo2_yeast MYO2, P19524

Variant	effect of a mutation on the interaction
MATQALEDITERLLIRSQEAILQLDLWIQRQQRSSICQTTDQESLDKLSQQYNQYMSQLNSLYVRSESVRDKLSKEQQRRLITEDNEHQRIEDLVREFQDITLRLNELATVPNEAPNDSPQSQSTRSSLGSFQPRPLKIVERQRLCMVTPSKPPKKSVGFNPINEVDCPSKTNSLPCSPKKQPARNRTLRAAKSHDTGLNKSKKPSSSDTYESFFKNRQRLSLTFFDEMDDEDFDSDQDTIILPNISTPPHVGVTAKGAEFEPLRRYNSHESILSNKPAPSKSLNLGSFSASFFRPSNPTFGTSISNVQVNCHPTVAATMAPSRNGPRISSSKALLSSFIARSDTHTVKENNTNLKHASFMDKFNSSLSTISESFQSKRGRKNKGMNEERISNHNVAQEQKNNMDISVSIEELQDALNTELLF [I140V]	with no effect

Variants of: B2
Conditions: with vac17_yeast VAC17, P25591

Variant	effect of a mutation on the interaction
G1248D	disrupting interaction strength
L1301P	disrupting interaction strength
D1297N	disrupting interaction strength
N1304D	disrupting interaction strength
N1304S	disrupting interaction strength

Variants of: B2
Conditions: with vac17_yeast VAC17, P25591
Remark: another data set of the same source

Variant	effect of a mutation on the interaction
G1248D	decreasing interaction strength

Variants of: B2
Conditions: with vac17_yeast VAC17, P25591
Remark: another data set of the same source

Variant	effect of a mutation on the interaction
G1248N	decreasing interaction strength
